Measured values as given in patent US20140087995A1 (published 2014).
Numbered stars: 1 amine (or outer) side, 2 acyl side, 3 side chain; on linkers, the order of the positions; unused ones are H or OH. Bridge positions count the residues as written; N and C are the ends. Side chains are listed from the residue outwards. Ends that are not written are not given here. * marks the point of attachment. C20 diacid = O=C(O)CCCCCCCCCCCCCCCCCCC(=O)*; γGlu = O=C(O)[C@H](CCC(=O)[*:2])N[*:1]

T1: human amylin receptor (Amylin 3(a) receptor: human calcitonin receptor co-expressed with RAMP-3) (human, UniProt P30988 25-474; O60896 24-148, limits assumed)
T1 construct: whole, on cells; Used as cell membranes prepared from the Amylin 3(a)/CRE-luc BHK cells (Assay V); the complex is called the human amylin receptor; also called hAmylin-R; hAmylinR
T1 sequence (looked up) 1: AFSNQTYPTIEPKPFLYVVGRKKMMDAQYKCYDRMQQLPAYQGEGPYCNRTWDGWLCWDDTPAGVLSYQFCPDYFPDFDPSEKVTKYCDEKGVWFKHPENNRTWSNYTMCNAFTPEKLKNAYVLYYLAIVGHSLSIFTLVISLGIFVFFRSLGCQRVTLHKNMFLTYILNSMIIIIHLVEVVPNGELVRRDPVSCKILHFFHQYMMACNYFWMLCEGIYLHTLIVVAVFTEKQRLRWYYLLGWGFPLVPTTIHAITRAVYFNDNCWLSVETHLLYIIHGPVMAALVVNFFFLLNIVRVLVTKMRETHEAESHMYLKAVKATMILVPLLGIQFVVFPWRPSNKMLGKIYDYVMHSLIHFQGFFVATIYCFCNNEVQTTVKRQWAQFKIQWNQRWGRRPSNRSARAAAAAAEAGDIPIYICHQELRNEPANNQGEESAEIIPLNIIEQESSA
T1 sequence (looked up) 2: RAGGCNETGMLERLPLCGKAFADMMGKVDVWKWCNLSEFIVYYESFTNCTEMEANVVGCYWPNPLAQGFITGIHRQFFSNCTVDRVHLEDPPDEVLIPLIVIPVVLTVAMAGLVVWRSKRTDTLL


biological target: T1, human amylin receptor (Amylin 3(a) …); assay: SPA competition binding, displacement of 125I-rat amylin from membranes of BHK cells with human calcitonin receptor + RAMP-3 (Assay V)
Protocol: The binding assay was performed using scintillation proximity assay (SPA) beads (RPNQ0001) from PerkinElmer and cell membranes from the Amylin 3(a)/CRE-luc cells (as described in Assay (II)) were used. Membranes were prepared in the following way; the cells were rinsed with PBS and incubated with Versene for approximately 5 min before harvesting. The cells were flushed with PBS and the cell-suspension was centrifuged for 5 min at 1000 rpm. Cells were homogenized (ultrathurrax) in a buffer containing 20 mM Na-HEPES and 10 mM EDTA (pH 7.4) and centrifuged at 20.000 rpm for 15 min. The resulting pellet was resuspended, homogenized and centrifuged (20.000 rpm, 15 min) in a buffer containing 20 mM Na-HEPES and 0.1 mM EDTA (pH 7.4, buffer 2). The resulting pellet was resuspended in buffer 2 and protein concentration was measured (BCA protein Assay, Pierce). The homogenate was kept cold during the whole procedure. The membranes were kept at −80° C. until use. The assay was performed in a 384 well Optiplate (PerkinElmer) in a total volume of 40 ul. Membranes were mixed with SPA beads. Final concentration of membranes 35 ng/μL final and SPA beads was 0.05 mg/well. Test-compounds were dissolved in DMSO and further diluted in assay buffer (50 mM Hepes, pH 7.4, 1 mM CaCl2, 5 mM MgCl₂, 0.1% OA and 0.02% Tween20). […] The final mixture was incubated with shaking at 400 rpm for 120 min at 25° C. prior to centrifugation (1500 rpm, 10 min). Samples were analyzed on TopCounter™ (Packard). The IC₅₀ was calculated using (one site binding competition analysis) GraphPad Prism5 as a measure of receptor affinity.

Row | IC50 [pM] | Binder
1 | 281 | K([γGlu-C20 diacid])CNTATCATQRLADFLRHSSPNFGAIPSSTNVGPRTY-NH2 (disulfide 2-7; N-terminus assumed; SMILES CC[C@H](C)[C@H](NC(=O)[C@H](C)NC(=O)CNC(=O)[C@H](Cc1ccccc1)NC(=O)[C@H](CC(N)=O)NC(=O)[C@@H]1CCCN1C(=O)[C@H](CO)NC(=O)[C@H](CO)NC(=O)[C@H](Cc1c[nH]cn1)NC(=O)[C@H](CCCNC(=N)N)NC(=O)[C@H](CC(C)C)NC(=O)[C@H](Cc1ccccc1)NC(=O)[C@H](CC(=O)O)NC(=O)[C@H](C)NC(=O)[C@H](CC(C)C)NC(=O)[C@H](CCCNC(=N)N)NC(=O)[C@H](CCC(N)=O)NC(=O)[C@@H](NC(=O)[C@H](C)NC(=O)[C@@H]1CSSC[C@H](NC(=O)[C@@H](N)CCCCNC(=O)CC[C@H](NC(=O)CCCCCCCCCCCCCCCCCCC(=O)O)C(=O)O)C(=O)N[C@@H](CC(N)=O)C(=O)N[C@@H]([C@@H](C)O)C(=O)N[C@@H](C)C(=O)N[C@@H]([C@@H](C)O)C(=O)N1)[C@@H](C)O)C(=O)N1CCC[C@H]1C(=O)N[C@@H](CO)C(=O)N[C@@H](CO)C(=O)N[C@H](C(=O)N[C@@H](CC(N)=O)C(=O)N[C@H](C(=O)NCC(=O)N1CCC[C@H]1C(=O)N[C@@H](CCCNC(=N)N)C(=O)N[C@H](C(=O)N[C@@H](Cc1ccc(O)cc1)C(N)=O)[C@@H](C)O)C(C)C)[C@@H](C)O, modifications are with respect to human amylin)
2 | 387 | K([γGlu-C20 diacid])CNTATCATQRLAEFLRHSSPNFGAIPSSTNVGHETY-NH2 (disulfide 2-7; N-terminus assumed; SMILES CC[C@H](C)[C@H](NC(=O)[C@H](C)NC(=O)CNC(=O)[C@H](Cc1ccccc1)NC(=O)[C@H](CC(N)=O)NC(=O)[C@@H]1CCCN1C(=O)[C@H](CO)NC(=O)[C@H](CO)NC(=O)[C@H](Cc1c[nH]cn1)NC(=O)[C@H](CCCNC(=N)N)NC(=O)[C@H](CC(C)C)NC(=O)[C@H](Cc1ccccc1)NC(=O)[C@H](CCC(=O)O)NC(=O)[C@H](C)NC(=O)[C@H](CC(C)C)NC(=O)[C@H](CCCNC(=N)N)NC(=O)[C@H](CCC(N)=O)NC(=O)[C@@H](NC(=O)[C@H](C)NC(=O)[C@@H]1CSSC[C@H](NC(=O)[C@@H](N)CCCCNC(=O)CC[C@H](NC(=O)CCCCCCCCCCCCCCCCCCC(=O)O)C(=O)O)C(=O)N[C@@H](CC(N)=O)C(=O)N[C@@H]([C@@H](C)O)C(=O)N[C@@H](C)C(=O)N[C@@H]([C@@H](C)O)C(=O)N1)[C@@H](C)O)C(=O)N1CCC[C@H]1C(=O)N[C@@H](CO)C(=O)N[C@@H](CO)C(=O)N[C@H](C(=O)N[C@@H](CC(N)=O)C(=O)N[C@H](C(=O)NCC(=O)N[C@@H](Cc1c[nH]cn1)C(=O)N[C@@H](CCC(=O)O)C(=O)N[C@H](C(=O)N[C@@H](Cc1ccc(O)cc1)C(N)=O)[C@@H](C)O)C(C)C)[C@@H](C)O, modifications are with respect to human amylin; also called compound 107)
3 | 196 | K([γGlu-C20 diacid])CNTATCATQRLADFLRHSSPNFGAIPSSTNVGPETY-NH2 (disulfide 2-7; N-terminus assumed; SMILES CC[C@H](C)[C@H](NC(=O)[C@H](C)NC(=O)CNC(=O)[C@H](Cc1ccccc1)NC(=O)[C@H](CC(N)=O)NC(=O)[C@@H]1CCCN1C(=O)[C@H](CO)NC(=O)[C@H](CO)NC(=O)[C@H](Cc1c[nH]cn1)NC(=O)[C@H](CCCNC(=N)N)NC(=O)[C@H](CC(C)C)NC(=O)[C@H](Cc1ccccc1)NC(=O)[C@H](CC(=O)O)NC(=O)[C@H](C)NC(=O)[C@H](CC(C)C)NC(=O)[C@H](CCCNC(=N)N)NC(=O)[C@H](CCC(N)=O)NC(=O)[C@@H](NC(=O)[C@H](C)NC(=O)[C@@H]1CSSC[C@H](NC(=O)[C@@H](N)CCCCNC(=O)CC[C@H](NC(=O)CCCCCCCCCCCCCCCCCCC(=O)O)C(=O)O)C(=O)N[C@@H](CC(N)=O)C(=O)N[C@@H]([C@@H](C)O)C(=O)N[C@@H](C)C(=O)N[C@@H]([C@@H](C)O)C(=O)N1)[C@@H](C)O)C(=O)N1CCC[C@H]1C(=O)N[C@@H](CO)C(=O)N[C@@H](CO)C(=O)N[C@H](C(=O)N[C@@H](CC(N)=O)C(=O)N[C@H](C(=O)NCC(=O)N1CCC[C@H]1C(=O)N[C@@H](CCC(=O)O)C(=O)N[C@H](C(=O)N[C@@H](Cc1ccc(O)cc1)C(N)=O)[C@@H](C)O)C(C)C)[C@@H](C)O, modifications are with respect to human amylin)
4 | 992 | K([γGlu-C20 diacid])CNTATCATQRLAEFLRHSSPNFGAIPSSTNVGSHTY-NH2 (disulfide 2-7; N-terminus assumed; SMILES CC[C@H](C)[C@H](NC(=O)[C@H](C)NC(=O)CNC(=O)[C@H](Cc1ccccc1)NC(=O)[C@H](CC(N)=O)NC(=O)[C@@H]1CCCN1C(=O)[C@H](CO)NC(=O)[C@H](CO)NC(=O)[C@H](Cc1c[nH]cn1)NC(=O)[C@H](CCCNC(=N)N)NC(=O)[C@H](CC(C)C)NC(=O)[C@H](Cc1ccccc1)NC(=O)[C@H](CCC(=O)O)NC(=O)[C@H](C)NC(=O)[C@H](CC(C)C)NC(=O)[C@H](CCCNC(=N)N)NC(=O)[C@H](CCC(N)=O)NC(=O)[C@@H](NC(=O)[C@H](C)NC(=O)[C@@H]1CSSC[C@H](NC(=O)[C@@H](N)CCCCNC(=O)CC[C@H](NC(=O)CCCCCCCCCCCCCCCCCCC(=O)O)C(=O)O)C(=O)N[C@@H](CC(N)=O)C(=O)N[C@@H]([C@@H](C)O)C(=O)N[C@@H](C)C(=O)N[C@@H]([C@@H](C)O)C(=O)N1)[C@@H](C)O)C(=O)N1CCC[C@H]1C(=O)N[C@@H](CO)C(=O)N[C@@H](CO)C(=O)N[C@H](C(=O)N[C@@H](CC(N)=O)C(=O)N[C@H](C(=O)NCC(=O)N[C@@H](CO)C(=O)N[C@@H](Cc1c[nH]cn1)C(=O)N[C@H](C(=O)N[C@@H](Cc1ccc(O)cc1)C(N)=O)[C@@H](C)O)C(C)C)[C@@H](C)O, modifications are with respect to human amylin)
5 | 232 | K([γGlu-C20 diacid])CNTATCATQRLAEFLRHSSPNFGAIPSSTNVGRETY-NH2 (disulfide 2-7; N-terminus assumed; SMILES CC[C@H](C)[C@H](NC(=O)[C@H](C)NC(=O)CNC(=O)[C@H](Cc1ccccc1)NC(=O)[C@H](CC(N)=O)NC(=O)[C@@H]1CCCN1C(=O)[C@H](CO)NC(=O)[C@H](CO)NC(=O)[C@H](Cc1c[nH]cn1)NC(=O)[C@H](CCCNC(=N)N)NC(=O)[C@H](CC(C)C)NC(=O)[C@H](Cc1ccccc1)NC(=O)[C@H](CCC(=O)O)NC(=O)[C@H](C)NC(=O)[C@H](CC(C)C)NC(=O)[C@H](CCCNC(=N)N)NC(=O)[C@H](CCC(N)=O)NC(=O)[C@@H](NC(=O)[C@H](C)NC(=O)[C@@H]1CSSC[C@H](NC(=O)[C@@H](N)CCCCNC(=O)CC[C@H](NC(=O)CCCCCCCCCCCCCCCCCCC(=O)O)C(=O)O)C(=O)N[C@@H](CC(N)=O)C(=O)N[C@@H]([C@@H](C)O)C(=O)N[C@@H](C)C(=O)N[C@@H]([C@@H](C)O)C(=O)N1)[C@@H](C)O)C(=O)N1CCC[C@H]1C(=O)N[C@@H](CO)C(=O)N[C@@H](CO)C(=O)N[C@H](C(=O)N[C@@H](CC(N)=O)C(=O)N[C@H](C(=O)NCC(=O)N[C@@H](CCCNC(=N)N)C(=O)N[C@@H](CCC(=O)O)C(=O)N[C@H](C(=O)N[C@@H](Cc1ccc(O)cc1)C(N)=O)[C@@H](C)O)C(C)C)[C@@H](C)O, modifications are with respect to human amylin)
